Results: patent publication US20120207760A1
Where a chain is given by its changes, count along the chain named.

B1: 3260_D19 (antibody, V domains shown)
VH: DMQLVESGGGLVPPGGSLRLSCAASGFSVSDNYINWVRQAPGKGLDWVSVFYSADRTSYADSVKGRFTVSSHDSKNTVYLQMNSLRAEDTAVYYCARVQKSYYGMDVWGQGTTVTVSS
VL: GIQMTQSPSSLSASVGDRVTITCRASQSISRYLNWYLQKPGKAPKLLISGASSLQSGVPSRFSGTGSGTEFTLTISSLQPEDFATYYCQQTFSIPLFGQGTKVEIK
B2: 3242_P05 (antibody, V domains shown)
VH: B1 VH
VL: B1 VL
B3: 3136_G05 (antibody, V domains shown)
VH: QVQLQESGPGLVKPSETLSLTCSVSGGSISSDFWSWIRQPPGKGLEWIGYVYNRGSTKYSPSLKSRVTISADMSKNQFSLNMSSVTAADTAVYYCAKNGRSSTSWGIDVWGKGTTVTVSS
VL: DIQMTQSPSSLSASVGDRLTITCRASQSISTYLHWYQQKPGKAPKLLIYAASSLQSGVPSRFSGSRSGTDFTLTISSLQPDDFATYYCQQSYSPPLTFGPGTKVDMK
B4: 3241_G23 (antibody, V domains shown)
VH: QVQLQQSGPGLVKPSQTLSLTCTVSGGPVSGGGYSWNWIRQRPGQGLEWVGFMFHSGSPRYNPTLKSRITISVDTSKNLVSLKLSSVTAADTAVYFCARVGQMDKYYAMDVWGQGTTVTVSS
VL: DIQMTQSPSSLSSSVGDRVTITCRASQSIGAYVNWYQQKAGKAPQVLIFGASNLQSGVPSRFSGSGSGTDFTLTISSLQPEDFATYFCQQTYSTPITFGQGTRLEIK
B5: 3248_P18 (antibody, V domains shown)
VH: QVQLQESGPGLVKPSETLSLTCTVSGGSISAYHWSWIRQPPGKGLEWIGHIFDSGSTYYNPSLKSRVTISLDASKNQLSLRLTSVTASDTAIYYCARPLGSRYYYGMDVWGQGTTVTVSS
VL: DIQMTQSPSSLSASVGDRVTITCRASQSISRYLNWYQQKPGKAPKLLIYGASTLQNGAPSRFSGSGSGTDFTLTISSLQPEDSATYLCQQSYSVPAFGGGTKVEVK
B6: 3243_J07 (antibody, V domains shown)
VH: QVQLQESGPGLLKPSDTLALTCTVSGGSITSDYWSWIRQPPGRGLDWIGFFYNGGSTKYNPSLKSRVTISADTSKNQLSLKLTSVTAADTGVYYCARHDVKFSGSYYVASWGQGTRVTVSS
VL: DIQMTQSPSSLSASVGDRVTISCRASQSISTYLNWYQQQPGKAPKVLISGATNLQSGVPSRFSGSGSGTDFTLTISSLQPEDFATYYCQQSYNTPLIFGQGTKLEIK
B7: 3253_P10 (antibody, V domains shown)
VH: B6 VH with V100A
VL: B6 VL with N53D
B8: 3244_I10 (antibody, V domains shown)
VH: B6 VH with V100A
VL: B6 VL with S49F
B9: 3245_O19 (antibody, V domains shown)
VH: EVQLVESGGGLVQPGGSLRLSCTASGLSVSSTYMNWVRQAPGKGLEWVSVFYSETRTYYADSVKGRFTVSRHNSNNTLYLQMNSLRVEDTAVYYCARVQRLSYGMDVWGQGTTVTVSS
VL: DIQMTQSPSSLSASVGDRVTITCRASQSISTYLNWYQKRPGKAPKLLVYGASTLQSGVPSRFSGSGSGTDFTLTIASLQPEDSATYYCQQTYSIPLFGQGTRLEIK
B10: 3244_H04 (antibody, V domains shown)
VH: B9 VH with V87A
VL: B9 VL with T53S, T85V
B11: 3139_P23 (antibody, V domains shown)
VH: QVQLQESGPRLVKPSESLSLTCTVSGGSISNSFWGWIRQPPGEGLEWIGYVYNSGNTKYNPSLKSRVTISRDTSKSQLYMKLRSVTAADTAVYYCARHDDASHGYSISWGHGTLVTVSS
VL: DIQMTQSPSSLSASVGDRVTITCRASQTISTYLNWYQQKSGKAPKLLIYAASGLQSGVPSRFSGSGSGTDFTLTISSLQPEDFATYFCQQSYNTPLTFGQGTKVEIK
B12: 3259_J21 (antibody, V domains shown)
VH: QVQLQESGPRVVRPSETLSLTCTVSGGSISSYNWIWIRQPPGKGLEWIGHIYDYGRTFYNSSLQSRPTISVDASKNQLSLRLTSVTASDTAVYYCARPLGILHYYAMDLWGQGTTVTVSS
VL: DIQMTQSPLSVSVSVGDRVTIACRASQSIDKFLNWYQQKPGKAPKLLIYGASNLHSGAPSRFSASGSGTDFTLTITNIQTEDFATYLCQQSFSVPAFGGGTKVEIK
B13: 3252_C13 (antibody, V domains shown)
VH: QVQLQESGPGLVKPSETLSLTCTVSGASISSDYWSWIRLPPGKGLEWIGYIYNRGSTKYTPSLKSRVTISLDTAENQFSLRLRSVTAADTAIYYCARHVGGHTYGIDYWGQGTLVTVSS
VL: DIQMTQSPSSLSASVGDRVTITCRASQSISNYLNWYQHKPGEAPKLLNYAASSLQSGVPSRFSASGSGTDFTLTISSLQPEDFATYYCQQSYNTPITFGQGTRLEIK
B14: 3255_J06 (antibody, V domains shown)
VH: B13 VH with I92V
VL: B13 VL with T74S, S77G, Q100P
B15: 3420_I23 (antibody, V domains shown)
VH: QVQLQESGPGLVKPSETLSVTCKVSGDSISSYSWSWIRQPPGKGLEWVGYLYYSGSTKYNPSLKSRTTISVDTSTNQLSLKLSFVTAADTAVYFCARTGSESTTGYGMDVWGQGTTVTVSS
VL: B13 VL with N31T, H38Q, E42K, N48I, Q55H, A64G, T72A, N93S, T94P
B16: 3362_B11 (antibody, V domains shown)
VH: QVQLQASGPGLVKPSETLSLTCTVSGDSITSGAYYWTWIRQHPGKGLEWIGYIYYSGNTYYNPSLKSRVTISLDTSKNQFSLKVNSVTAADTAVYYCARAASTSVLGYGMDVWGQGTTVTVSS
VL: B13 VL with N31R, H38Q, K39E, E42K, N48V, A64G, N93S, I96L
B17: TCN-549 (5092_P04) (antibody, V domains shown)
VH: QVQLVQSGAEVKKPGASVKVSCKASGYTFTGYYMHWVRQAPGQGLEWMGWINPNSGDTNYAQKFQGRVTMTRDTSITTAYMELSSLRSDDTAVYYCARDSPYSSSWSFFDYWGQGPLVTVSS
VL: not shown
B18: TCN-544 (5082_A19) (antibody, V domains shown)
VH: QVQLQESGPGLVKPSETLSLTCTVSRGSIGHYFWSWIRQPPGKGLEWIGYISYSGSTKYNPSLRSRVTISVDTSKNQFSLNLNSVTATDTALYYCAREDYDILTGAGPGMEVWGQGTTVTVSS
VL: QSMLTQPPSASGTPGQRVTISCSGSSSNIGSNTVNWFKHLPGTAPKLLIYRNDLRPSGVPDRFSGSKSGTSASLAISGLQSEDEADYYCATWDDSLNGFYVFGTGTKVTVL
B19: TCN-537 (3194_D21) (antibody, V domains shown)
VH: QVQLQQWGSGLLKPSETLSLTCAVYGGSFRDDYWTWIRQPPGKGLEWIGEINHSGRTNYNPSLKSRVTISVDTSLKQFSLKVISVTAADTAVYYCARGTSHVSRYFDWLPPTNWFDPWGQGTQVTVSS
VL: DIVLTQSPGTLSLSPGERATLSCRASQSVSSSYLAWYQQKPGQAPRLVMYGAATRATGIPDRFSGSGSGPDFTLTISRLEPEDFAMYYCQQYGNSPITFGQGTRLEIK
B20: TCN-543 (5081_G23) (antibody, V domains shown)
VH: QVHLVQSGAEVRKPGDSVKVSCKTSGYTFSTYPVAWVRQVPGQGLEWMGWISTYNGNTNFAQNFQGRVTLTTDTTTNTAYMEVRSLKFDDTAVYYCARVEGSYRDFWNNQNRFDPWGQGTLVTVSS
VL: SYVLTQPPSVSVAPGQTARISCGGSNIGGKSVHWYQQKPGQAPVLVVYDDSGRPSGIPERFSGSNSGDTATLTISRVEAGDEADYFCQVWDNFGGVFGTGTKVTVL

Target: M2 protein of influenza A/Hong Kong/483/97 (H5N1) (Influenza A virus A/Hong Kong/483/97)
Test: not given
Conditions: not given

Binder	FACS M2-HK MFI [MFI]
B1	846
B2	596
B3	109
B4	1700
B5	967
B6	131
B7	43
B8	434
B9	919
B10	963
B11	110
B12	1670
B13	449
B14	442
B15	112
B16	218

Target: recombinant homotrimeric HA, A/Japan/305/57 H2N2 (Influenza A virus A/Japan/305/57 (H2N2))
Test: trimeric HA microarray, transfection set 5
Conditions: remark: other sources report otherwise

Binder	Trimeric HA Binding RLU [RLU]
B17	1080
B18	1000
B19	16200

Target: recombinant homotrimeric HA, A/South Carolina/1/18 H1N1 (Influenza A virus A/South Carolina/1/18 (H1N1))
Test: trimeric HA microarray, transfection set 5
Conditions: remark: other sources report otherwise

Binder	Trimeric HA Binding RLU [RLU]
B18	1330
B19	46800
B20	28300

Target: recombinant homotrimeric HA, A/swine/Ontario/01911-2/99 H4N6 (Influenza A virus A/swine/Ontario/01911-2/99 (H4N6))
Test: trimeric HA microarray, transfection set 5
Conditions: remark: other sources report otherwise

Binder	Trimeric HA Binding RLU [RLU]
B19	3280

Target: recombinant homotrimeric HA, A/California/4/09 H1N1 (Influenza A virus A/California/4/09 (H1N1))
Test: trimeric HA microarray, transfection set 5
Conditions: remark: other sources report otherwise

Binder	Trimeric HA Binding RLU [RLU]
B17	622
B18	706
B19	33800
B20	2340

Target: recombinant homotrimeric HA, A/Wisconsin/67/05 H3N2 (Influenza A virus A/Wisconsin/67/05 (H3N2))
Test: trimeric HA microarray, transfection set 5
Conditions: remark: other sources report otherwise

Binder	Trimeric HA Binding RLU [RLU]
B17	51600
B19	1940
B20	37000

Target: recombinant homotrimeric HA, A/Solomon Islands/3/06 H1N1 (Influenza A virus A/Solomon Islands/3/06 (H1N1))
Test: trimeric HA microarray, transfection set 5
Conditions: remark: other sources report otherwise

Binder	Trimeric HA Binding RLU [RLU]
B17	640
B18	997
B20	43500
